# Laboratory results published in the supplement of paper PMC10201428.
# ± gives the standard deviation of the averaged measurements.
# B1: library; a variant is named by its letters at N, in order (parent)
# chain: ACATTTGTTGATACAACCATAAAATGATAATTACACCCATAAATTGATAATTATCACACCCANNNNNNNNNNNNNNCTCTGATCATAGTCAGACCAACATTGCTACGACCCGTATTCGCACCGACAC
# What was measured:
# [1] = variants of: B1; experiment: relative integration efficiency (T-RL orientation) vs wild-type transposon end (log2 (normalized fold change)); transposon end mutated: right end (5 bp flank + 75 bp right end); higher = more efficient transposition; conditions: with VchCAST RNA-guided transposition machinery (E. coli BL21(DE3) host, lacZ target)
# Experimental: (§1)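 Pooled, barcoded VchCAST (Tn6677) mini-transposon donor libraries; each variable transposon-end sequence sits in a fixed pDonor mini-transposon context (10-bp barcode and cargo not included). Left- or right-end libraries were co-transformed with pEffector (TniQ-Cascade, TnsABC, lacZ crRNA, T7, 0.1 mM IPTG) into E. coli BL21(DE3) and grown 18 h at 37 C. T-LR and T-RL junction amplicons were sequenced; output/input barcode fold change was normalised to the mean of four wild-type barcodes and log2-transformed. Two biological replicates; zero-count/undetected variants carry floor values (-10 / -15), censored here. Barcode uncoupling by PCR recombination adds noise.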
# [2] = variants of: B1; experiment: relative integration efficiency (T-LR orientation) vs wild-type transposon end (log2 (normalized fold change)); transposon end mutated: right end (5 bp flank + 75 bp right end); higher = more efficient transposition; conditions: with VchCAST RNA-guided transposition machinery (E. coli BL21(DE3) host, lacZ target)
# Experimental: as §1
Variant,relative integration efficiency (log2) [1],relative integration efficiency (log2) [2]
ATTTAACTATAACG G26C,-2.84 ± 0.47,1.17 ± 0.16
ATTTAACTATAACG G26A,-1.27 ± 0.28,2.69 ± 0.084
ATTTAACTATAACG G26T,-1.75 ± 0.32,2.24 ± 0.073
ATTTAACTATAACG T6A,-6.98 ± 0.9,-4.12 ± 0.43
ATTTAACTATAACG T6G,-6.3 ± 0.14,-5.38 ± 0.28
ATTTAACTATAACG A22C,-1.71 ± 0.34,1.21 ± 0.057
ATTTAACTATAACG A22T,-0.696 ± 0.12,2.5 ± 0.18
ATTTAACTATAACG A22G,-1.42 ± 0.27,1.36 ± 0.45
ATTTAACTATAACG T28G,-1.52 ± 0.28,1.89 ± 0.21
ATTTAACTATAACG T28C,-1.29 ± 0.26,2.16 ± 0.037
ATTTAACTATAACG A49T,-1.3 ± 0.35,2.31 ± 0.04
ATTTAACTATAACG A49C,-1.46 ± 0.19,2.17 ± 0.094
ATTTAACTATAACG A39C,-2.44 ± 0.36,0.461 ± 0.1
ATTTAACTATAACG A39G,-0.496 ± 0.057,2.47 ± 0.042
ATTTAACTATAACG A39T,-1.34 ± 0.21,1.59 ± 0.1
ATTTAACTATAACG A42T,-0.805 ± 0.085,2.24 ± 0.14
ATTTAACTATAACG A42C,-1.82 ± 0.3,1.03 ± 0.13
ATTTAACTATAACG A42G,-1.62 ± 0.22,1.19 ± 0.16
GCCATTGATATTGC A62C,-0.86 ± 0.27,2.47 ± 0.15

Variant,relative integration efficiency (log2) [1],relative integration efficiency (log2) [2]
ATTTAACTATAACG A24G,-0.674 ± 0.13,2.25 ± 0.086
ATTTAACTATAACG A24T,-0.752 ± 0.19,2.39 ± 0.024
ATTTAACTATAACG A24C,-0.878 ± 0.18,2.28 ± 0.015
ATTTAACTATAACG A43T,-0.99 ± 0.12,2.15 ± 0.11
ATTTAACTATAACG A43G,-0.724 ± 0.15,2.29 ± 0.09
ATTTAACTATAACG A43C,-0.798 ± 0.095,2.4 ± 0.038
ATTTAACTATAACG T8C,-1.8 ± 0.42,-0.0325 ± 0.43
ATTTAACTATAACG T8G,-6.07 ± 0.37,-5.36 ± 1.4
ATTTAACTATAACG T8A,-1.56 ± 0.29,0.918 ± 0.079
ATTATTGATATTGC A62T,-0.325 ± 0.075,1.957 ± 0.011
GCCCTTGATATTGC,-0.468 ± 0.1,2.5 ± 0.11
ATTTAACTATAACG T52G,-1.31 ± 0.41,2.29 ± 0.27
ATTTAACTATAACG T52A,-1.26 ± 0.2,2.3 ± 0.12
ATTTAACTATAACG A53G,-1.38 ± 0.34,2.239 ± 0.0053
ATTTAACTATAACG A53C,-1.32 ± 0.33,2.49 ± 0.26
GCAATTGATATTGC,-0.508 ± 0.047,2.25 ± 0.12
ATTTAACTATAACG G7C,-1.39 ± 0.16,1.24 ± 0.17
ATTTAACTATAACG A58T,-0.708 ± 0.029,2.39 ± 0.19
